Measurements from article PMC10724246 (Nature Communications, 2023).
Changes are numbered by the printed parent chain. No end group written: not given here.

How the values were obtained:
[1] = target: wild-type SARS-CoV-2 S tail heptapeptide (1267Gly-Val-Lys-Leu-His-Tyr-Thr1273) (SARS-CoV-2); assay: BLI; […]; pH 6.5 ([…]; 25 °C; Octet RED96; […]
[2] = target: clientized Thr1273Glu SARS-CoV-2 S tail heptapeptide (1267Gly-Val-Lys-Leu-His-Tyr-Glu1273) (SARS-CoV-2); assay: BLI; […]; pH 6.5 ([…]; 25 °C; Octet RED96; […]
[3] = target: Thr1273Glu clientized S tail 21mer peptide (BLI) (SARS-CoV-2); assay: BLI; pH 7
[4] = target: amidated clientized Thr1273Glu S heptapeptide (SARS-CoV-2); assay: BLI; […]; pH 6.5 ([…]; 25 °C; Octet RED96; […]
[5] = target: Thr1273Glu clientized S tail 21mer peptide (BLI) (SARS-CoV-2); assay: BLI; […]; pH 6.5 ([…]; 25 °C; Octet RED96; […]
[6] = target: clientized GST-S tail fusion, Thr1273Glu (SARS-CoV-2); assay: pull-down
[7] = target: clientized GST-S tail fusion, Thr1273Asp (SARS-CoV-2); assay: pull-down
αWD40 Arg300Ala mutant = target: T1, αWD40 Arg300Ala mutant (Schizosaccharomyces pombe, UniProt Q96WV5, R300A); assay: biochemical; assay type: binding, S. pombe; conditions: pH 6.5
T1 construct: strep-tag (C); made in house; host or cells: Expi293 cells
T1 sequence (Q96WV5 1-327 R300A limits assumed): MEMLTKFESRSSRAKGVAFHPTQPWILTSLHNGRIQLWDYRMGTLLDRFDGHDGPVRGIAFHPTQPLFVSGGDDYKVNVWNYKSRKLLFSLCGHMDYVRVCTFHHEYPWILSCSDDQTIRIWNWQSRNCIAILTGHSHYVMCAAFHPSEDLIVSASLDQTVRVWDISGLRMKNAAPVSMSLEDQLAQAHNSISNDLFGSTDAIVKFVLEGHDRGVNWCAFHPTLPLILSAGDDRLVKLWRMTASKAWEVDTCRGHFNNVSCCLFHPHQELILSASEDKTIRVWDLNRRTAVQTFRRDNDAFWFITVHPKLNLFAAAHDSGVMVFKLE

αWD40 Arg13Ala mutant = target: T2, αWD40 Arg13Ala mutant (Schizosaccharomyces pombe, UniProt Q96WV5, R13A); assay: biochemical; assay type: binding, S. pombe; conditions: pH 6.5
T2 construct: strep-tag (C); made in house; host or cells: Expi293 cells
T2 sequence (Q96WV5 1-327 R13A limits assumed): T1 sequence (Q96WV5 1-327 R300A limits assumed) with R13A, A300R

β‘WD40 domain (β‘-COPI) = target: T3, β‘WD40 domain (β‘-COPI) (Saccharomyces cerevisiae, UniProt P41811); assay: biochemical; assay type: binding, S. cerevisiae; conditions: pH 6.5
T3 construct: strep-Hisx6-SUMO (N, cleaved yes); made in house; host or cells: E. coli BL21(DE3)pLysS
T3 sequence (P41811 1-304 limits assumed): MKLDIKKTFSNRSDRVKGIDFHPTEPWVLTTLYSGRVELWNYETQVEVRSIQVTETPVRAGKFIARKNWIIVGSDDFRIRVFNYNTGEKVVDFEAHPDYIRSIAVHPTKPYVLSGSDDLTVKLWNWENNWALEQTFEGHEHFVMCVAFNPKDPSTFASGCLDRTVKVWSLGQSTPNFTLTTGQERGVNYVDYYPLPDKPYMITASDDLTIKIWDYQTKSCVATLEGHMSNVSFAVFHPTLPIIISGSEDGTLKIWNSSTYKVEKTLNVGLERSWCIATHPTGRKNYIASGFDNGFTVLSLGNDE

[8] = target: T4, S. cerevisiae β‘-COPI WD40 domain (β‘WD40), wild type (S. cerevisiae, UniProt P41811 1-301); assay: BLI; […]; pH 6.5 ([…]; 25 °C; Octet RED96; […]; conditions: both partners purified
T4 sequence: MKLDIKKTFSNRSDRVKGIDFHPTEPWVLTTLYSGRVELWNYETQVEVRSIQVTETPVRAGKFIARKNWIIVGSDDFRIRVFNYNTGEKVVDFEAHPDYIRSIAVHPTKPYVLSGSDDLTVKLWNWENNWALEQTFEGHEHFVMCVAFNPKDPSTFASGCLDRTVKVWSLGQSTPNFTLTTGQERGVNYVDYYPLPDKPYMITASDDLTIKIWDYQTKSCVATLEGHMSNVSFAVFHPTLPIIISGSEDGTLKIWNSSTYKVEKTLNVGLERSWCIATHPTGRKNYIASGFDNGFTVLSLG

αWD40 Arg300Ala mutant (domain or fragment)
Kd [1]: 3.6 µM
koff [1]: 0.81 s⁻¹
kon [1]: 360000 M⁻¹ s⁻¹
Kd [2]: 4.2 µM
koff [2]: 0.43 s⁻¹
kon [2]: 137000 M⁻¹ s⁻¹

S. pombe α-COPI WD40 domain (αWD40), wild type (domain or fragment)
Kd [3]: 100 nM
Kd [4]: 2300 nM
Kd [5]: 100 nM

αWD40 Arg13Ala mutant (domain or fragment)
Kd [1]: 8.5 µM
koff [1]: 0.38 s⁻¹
kon [1]: 148000 M⁻¹ s⁻¹
Kd [2]: 3 µM
koff [2]: 0.22 s⁻¹
kon [2]: 132000 M⁻¹ s⁻¹

endogenous coatomer complex (mouse liver cytosol) (from UniProt Q8CIE6 1-1224; Q9JIF7 1-953; O55029 1-905; Q9QZE5 1-874; Q5XJY5 1-511; O89079 1-308; P61924 1-177)
fold binding over the Lys-x-Lys-x-xCT dibasic mutant [6]: 2 fold
fold binding over the wild-type GST-S tail construct [6]: 17 fold
fold binding over the Lys-x-Lys-x-xCT dibasic mutant [7]: 2 fold
fold binding over the wild-type GST-S tail construct [7]: 17 fold

GVKLHYT [GVKLHYT]
koff (αWD40 Arg300Ala mutant): 0.81 ± 0.007 s⁻¹
koff (αWD40 Arg13Ala mutant): 0.38 ± 0.007 s⁻¹

GVKLHYE [GVKLHYE]
koff (αWD40 Arg300Ala mutant): 0.43 ± 0.003 s⁻¹
koff (β‘WD40 domain (β‘-COPI)): 1.27 ± 0.03 s⁻¹
koff (αWD40 Arg13Ala mutant): 0.22 ± 0.008 s⁻¹

B1: clientized Thr1273Glu SARS-CoV-2 S tail heptapeptide (1267Gly-Val-Lys-Leu-His-Tyr-Glu1273) (peptide)
peptide: GVKLHYE
notes: also called GVKLHYE; clientized S heptapeptide
Kd [8]: 2300 ± 230 nM
koff [8]: 1.27 s⁻¹
kon [8]: 2.42e+06 M⁻¹ s⁻¹
